Publication PMC10934791 (Molecules, 2024)

Columns and labels:
[1] = target: recombinant Lymnaea stagnalis acetylcholine-binding protein (AChBP) produced in LEXSY (Lymnaea stagnalis); assay: radioligand binding
[2] = target: T1, recombinant L. stagnalis AChBP expressed in the insect Sf9 cells (Lymnaea stagnalis, UniProt P58154 20-229); assay: radioligand binding; conditions: both partners purified
T1 construct: also called insect cell-produced AChBP; standard specimen of insect cell-produced AChBP
T1 sequence (P58154 20-229): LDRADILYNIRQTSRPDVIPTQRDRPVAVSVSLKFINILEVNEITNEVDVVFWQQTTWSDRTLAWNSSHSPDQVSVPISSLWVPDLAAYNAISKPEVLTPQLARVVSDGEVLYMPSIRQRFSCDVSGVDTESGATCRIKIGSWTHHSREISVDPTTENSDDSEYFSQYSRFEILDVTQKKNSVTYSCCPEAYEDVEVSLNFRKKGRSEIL

Sequence of recombinant Lymnaea stagnalis acetylcholine-binding protein (AChBP) produced in LEXSY (Lymnaea stagnalis) (P58154 20-229 limits assumed): as the sequence (P58154 20-229) above

Molecule	Kd [1]	Kd [2]
radioiodinated α-bungarotoxin (from UniProt P60615 22-95) (ligand)	50 pM	
radioiodinated α-bungarotoxin (ligand) IVCHTTATSPISAVTCPPGENLCYRKMWCDAFCSSRGKVVELGCAATCPSKKPYEEVTCCSTDKCNPHPKQRPG		62 ± 13 pM
